Numbering of substitutions follows the chain as printed.
T1: murine TNFα (murine, UniProt P06804 80-235, limits assumed, biotinylated (sites not given))
T1 construct: Bought reagent; also called biotinylated murine TNFα
T1 sequence (looked up): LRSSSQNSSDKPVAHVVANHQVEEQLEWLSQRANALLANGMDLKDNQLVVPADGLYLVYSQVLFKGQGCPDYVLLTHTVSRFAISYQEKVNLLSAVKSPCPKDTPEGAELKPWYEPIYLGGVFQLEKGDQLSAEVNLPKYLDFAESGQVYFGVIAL

B1: A1 VH2 (Fab, V domains shown)
VH: EVQLVESGGGLVQPGRSLRLSCAASGFTFDQYAMHWVRQAPGKGLEWVSAITWNSGHIDYADSVEGRFTISRDNAKNSLYLQMNSLRAEDTAVYYCAKVSYLPTAHHLDYWGQGTLVTVSS
VL: not shown
notes: Fab: VH/VL joined to human kappa constant domain and human G1 CH1
B2: A1 VH3 (Fab, V domains shown)
VH: B1 VH with S100H, L102H, H106S, H107S
VL: not shown
notes: as for B1
B3: A1 VL7 (Fab, V domains shown)
VH: not shown
VL: DIQMTQSPSSLSASVGDRVTITCRASQEIRNHLAWYQQKPGKAPKLLIYAASTLQSGVPSRFSGSGSGTDFTLTISSLQPEDVATYYCQRYNHAPYTFGQGTKVEIK
notes: as for B1
B4: AF-M2637 Fab (Fab, V domains shown)
VH: not shown
VL: B3 VL with E28G, H32Y, Q89H, R90H, N92H, H93R
notes: pH switch variant of Ab1; Fab: VH/VL joined to human kappa constant domain and human G1 CH1; also called control AF-M2637
B5: A1 VL2 (Fab, V domains shown)
VH: not shown
VL: B3 VL with H32Y, R90H, N92H, H93R
notes: as for B1
B6: A1 VL3 (Fab, V domains shown)
VH: not shown
VL: B3 VL with H32Y, R90H, N92H, H93R, T97H
notes: as for B1
B7: A1 VL4 (Fab, V domains shown)
VH: not shown
VL: B3 VL with H32Y, Q89H, R90H, N92H, H93R
notes: as for B1
B8: Ab4 Fab (Fab, V domains shown)
VH: EVQLVESGGGLVQPGGSLRLSCAASGYVFTDYGMNWVRQAPGKGLEWMGWINTYIGEPIYADSVKGRFTFSLDTSKSTAYLQMNSLRAEDTAVYYCARGYRSYAMDYWGQGTLVTVSS
VL: DIQMTQSPSSLSASVGDRVTITCKASQNVGTNVAWYQQKPGKAPKALIYSASFLYSGVPYRFSGSGSGTDFTLTISSLQPEDFATYYCQQYNIYPLTFGQGTKVEIK
notes: as for B1

What was measured:
human TNFα [1] = molecular target: T2, human TNFα (human, UniProt P01375 77-233, biotinylated in the Example 2 assay (sites not given)); experiment: ELISA: Fab titrated on immobilized human TNFα, 2 h dissociation at pH 7.4 with 100 nM soluble TNFα, A450
T2 construct: also called biotinylated human TNFα; soluble TNFα
T2 sequence (P01375 77-233 limits assumed): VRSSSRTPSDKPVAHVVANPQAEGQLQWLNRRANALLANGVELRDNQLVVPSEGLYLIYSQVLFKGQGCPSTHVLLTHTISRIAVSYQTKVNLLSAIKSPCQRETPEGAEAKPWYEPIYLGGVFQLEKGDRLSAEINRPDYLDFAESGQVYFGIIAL
Protocol: (§1) A 96-well Costar-3366 plate was coated with 50 μL/well of 1 μg/mL human TNFα (Genscript cat. #Z01001) in PBS for one hour at room temperature. The plate was rinsed twice with PBS-T and blocked with 100 μL/well of 1% BSA in PBS (B-PBS) for 1 h at 25° C. Fab samples were serially diluted 3-fold starting at 40 nM in B-PBS and were incubated for 1 h at 25° C. (50 μL/well). The plate was washed four times with PBS-T and 50 µL/well of 100 nM human TNFα in 1% BSA was added for 2 h at 25° C. The plate was washed four times with PBS-T and 50 μL/well of anti-human kappa, HRP conjugate (Southern Biotech, Prod. #2060-05) diluted 5,000-fold in B-PBS was added for 1 h at 25° C. The plate was washed three times with PBS-T, then developed with 50 μL/well 1-Step Ultra TMB-ELISA (ThermoFisher Scientific, Prod. #34028). The reaction was terminated by the addition of 2 N H₂SO₄ and the A450 was determined before and after addition of H₂SO₄, respectively, using a Spectramax plate reader.
(§2) The ELISA method used to characterize these variants was described in Example 3.

human TNFα [2] = molecular target: T2, human TNFα; experiment: as above; remark: listed apart in the source
Protocol: as §1

murine TNFα = molecular target: T1, murine TNFα; experiment: ELISA: Fab captured via anti-human Fd, biotinylated murine TNFα titrated (x axis), prolonged dissociation at pH 7.4, A450
Protocol: A 96-well Costar-3366 plate was coated with 50 μL/well of 2 μg/mL sheep anti-human Fd (Southern Biotech, Prod. #2046-01) in PBS for 1 hour at room temperature. The plate was washed four times with PBS containing 0.05% Tween 20 (PBS-T) and blocked with 100 μL/well of 1% BSA-PBS for 1 hour at room temperature. Block was removed and 50 μL/well of 0.5 ug/mL sample was added. Sample dilutions were performed with 1% BSA-PBS. The plate was washed four times with PBS containing 0.05% Tween 20 (PBS-T), then biotinylated murine (Acro biosystems) TNFα was serially diluted 3-fold starting at 30 nM in B-PBS and incubated for 1 h at 25° C. (50 μL/well). The plates were washed in 500 mL of PBS-T, pH 6.0 or PBS-T, pH 7.4 for 1 hour. PBS-T was removed from the plates every 10 minutes during this wash. The plates were then washed four times with PBS-T, and incubated with 50 μL/well of Neutravidin HRP (ThermoFisher Scientific, cat. #31030), diluted 2,000-fold in B-PBS for 1 h at 25° C. The plate was washed four times with PBS-T, then developed with 50 μL/well 1-Step Ultra TMB-ELISA (ThermoFisher Scientific, Prod. #34028). The reaction was terminated by the addition of 2 N H₂SO₄ and the A450 was determined before and after addition of H₂SO₄, respectively, using a Spectramax plate reader.

human TNFα [3] = molecular target: T2, human TNFα; experiment: ELISA: Fab titrated on immobilized human TNFα, 2 h dissociation at pH 7.4 with 100 nM soluble TNFα, A450 [cont.) C]
Protocol: as §1, §2

human TNFα [4] = molecular target: T2, human TNFα; experiment: ELISA: Fab titrated on immobilized human TNFα, 2 h dissociation at pH 6.0 with 100 nM soluble TNFα, A450
Protocol: as §1, §2

Binder | EC50 (read off the curve) (human TNFα [1]) | binding result (murine TNFα) | EC50 (read off the curve) (human TNFα [4]) | further results
B1 |  |  |  | binding result (human TNFα [1]): binds
B2 | ~0.7 nM | binds |  | EC50 (read off the curve) (human TNFα [2]): ~2 nM
B3 |  | binds |  | EC50 (read off the curve) (human TNFα [3]): ~1 nM
B4 | ~3 nM | no binding (tested: log -7.5 M b-muTNF) |  | 
B5 | ~0.4 nM |  | ~0.7 nM | 
B6 |  |  | ~0.9 nM | 
B7 |  |  | ~1 nM | 
B8 |  | no binding (tested: log -7.5 M b-muTNF) |  | 

— US20250388665A1 (ADAFRE BIOSCIENCES, published 2025)
